Laboratory results as given in patent publication US20050064420A1, “Methods for identifying, isolating, and controlling the growth of estrogen-responsive cells” (Dana-Farber Cancer Institute, Inc., priority 2001, published 2005).

Assays:
[1] = tested on: estrogen receptor expressing human breast cancer cell lines; assay type: cell-based
Experimental: Profiles for untreated (filled) and estrogen treated cells (unfilled) infected with the Ad-25ERE-GFP adenovirus are shown.
To assay estrogen responsiveness, cells were cultured in estrogen-free medium (phenol red-free RPMI1640 or DMEM/F12 medium (Life Technologies, Rockville, Md.) supplemented with charcoal/dextran treated fetal bovine serum (cd FBS; 5%) (Hyclone, Logan, Utah)) for 7 days. The cells were tested in fresh estrogen-free medium or fresh estrogen-free medium supplemented with 10 nM estradiol or 10 μM 4-hydroxy-tamoxifen. Cells were collected after 16-24 hours of hormone treatment.
For fluorescence microscopy analysis breast cancer cell lines were infected with Ad-25ERE-GFP virus at a MOI (multiplicity of infection) of ˜100 and treated with hormones as described above.
By infecting mammary epithelial cells with the Ad-25ERE-GFP adenovirus, it was possible to isolate ER+ estrogen responsive cells based on GFP expression. […] Ad-25ERE-GFP was then used to infect various estrogen receptor expressing human breast cancer cell lines in the presence of estrogen or tamoxifen or in the absence of hormone (FIG. 1B).

T47D cells = assay: Colony assay with lipocalin 2 conditioned medium; assay type: cell-based, human; conditions: conditioned medium from cells expressing lipocalin 2 vs GFP, seven days of culture
Experimental: (§1) FIG. 4 is a bar graph showing the number of colonies that were obtained after culturing estrogen receptor expressing 747D breast cancer cells and estrogen receptor non-expressing MCF10A normal immortalized mammary epithelial cells with conditioned medium from […] cells recombinantly expressing either GFP (“GEP”) or lipocalin 2 (“LIPO”). The experiments were carried out in the wells of 6-well tissue culture plates. Data, which are expressed as “Colonies/well”, from experiments carried out in medium supplemented with 5% fetal bovine serum (“5% FBS”) or 0.2% fetal bovine serum (“0.2% FBS”) are shown.
(§2) For experiments to test for cell growth regulatory activity in secreted lipocalin 2, conditioned medium was generated by infecting COS7 cells with replication-defective adenoviruses expressing either GFP or lipocalin 2. Filtered medium collected 3-4 days after infection was applied to T47 or MCF10A cells. Colonies were visualized by crystal violet staining after seven days of culture.
(§3) Lipocalin 2 is a secreted protein and could thus be a paracrine factor expressed by NER+ cells that affects the surrounding mammary epithelial cells. In order to determine the effect of lipocalin 2 expression on mammary cell growth, colony growth assays were performed in various ER− and ER+ breast cancer cell lines and in MCF10A cells (FIG. 3D). […]

MCF10A cells = assay: Colony assay with lipocalin 2 conditioned medium; assay type: cell-based, human; conditions: conditioned medium from cells expressing lipocalin 2 vs GFP, seven days of culture
Experimental: as §1, §2, §3

[2] = tested on: MCF10A immortalized ER- normal mammary epithelial cells; assay: Colony assay after transfection with lipocalin 2 expression vector (pCEP4-lipocalin-HA), hygromycin selection; assay type: cell-based, human; conditions: following lipocalin 2 transfection (control vector: 7 colonies), T25 flask
Text: (§4) FIG. 3D is a bar graph showing the numbers of colonies that were obtained after drug (hygromycin) selection (for 2 weeks) of estrogen receptor (“ER”) expressing (“Positive”) MCF-7 and T47D breast cancer cells, estrogen receptor non-expressing (“Negative”) BT549 and MTA-MB-435S breast cancer cells, and estrogen receptor non-expressing (“Negative”) MCF10A normal immortalized mammary epithelial cells that had all been transfected with either a control expression vector (“CEP”) or an expression vector containing cDNA encoding human lipocalin 2 fused at its C-terminus to a double hemagglutinin tag (“LIPO”). The experiments were carried out in T25 tissue culture flasks and the data are expressed as the number of “Colonies/T25 flask”.
(§5) cDNA encoding human lipocalin 2 was amplified by PCR and the isolated PCR product was cloned into the pCEP4 (Invitrogen, Carlsbad, Calif.). The resulting vector (pCEP4-lipocalin-HA) expresses lipocalin-2 with a double hemaglutinnin (HA) tag at its C-terminus. For colony assays, cells were transfected with pCEP4 (control) or pCEP4-lipocalin-HA using FuGene6 (Roche, Indianapolis, Ind.). Transfectants were selected in hygromycin-containing medium for 2 weeks after which colonies were visualized by crystal violet staining. Expression of the lipocalin 2-HA fusion protein was confirmed by western blot analysis (using an antibody specific for HA (Covance, Richmond, Calif.)) of cell lysate and medium from T47D cells transfected with pCEP4 or pCEP4-lipocalin-HA constructs.
(§6) Lipocalin 2 is a secreted protein and could thus be a paracrine factor expressed by NER+ cells that affects the surrounding mammary epithelial cells. In order to determine the effect of lipocalin 2 expression on mammary cell growth, colony growth assays were performed in various ER− and ER+ breast cancer cell lines and in MCF10A cells (FIG. 3D). […] In MCF10A immortalized ER− normal mammary epithelial cells a small increase in the number of colonies (18 vs. 7 colonies) was also observed following lipocalin 2 transfection (FIG. 3D). […]

[3] = tested on: ER- breast cancer cell line BT549; assay: as above; assay type: cell-based, human; conditions: lipocalin 2 expression vs control vector pCEP4, 2 weeks hygromycin selection
Text: as §4, §5, §6

[4] = tested on: ER+ breast cancer cell lines (MCF-7 and T47D); assay: as above; assay type: cell-based, human; conditions: lipocalin 2 expression vs control vector pCEP4; 2 weeks hygromycin selection; crystal violet staining
Text: as §4, §5, §6

For C[C@]12CC[C@@H]3c4ccc(O)cc4CC[C@H]3[C@@H]1CC[C@@H]2O [estrogen, estradiol], which GFP expression [1] is on record?
Its GFP expression is “high GFP expression”.

B1: lipocalin 2: Secreted human protein; expressed from pCEP4-lipocalin-HA with C-terminal double hemagglutinin tag, or supplied in conditioned medium (protein, UniProt P80188 21-198, looked up)
Neutrophil …: QDSTSDLIPAPPLSKVPLQQNFQDNQFQGKWYVVGLAGNAILREDKDPQKMYATIYELKEDKSYNVTSVLFRKKKCDYWIRTFVPGCQPGEFTLGNIKSYPGLTSYLVRVVSTNYNQHAMVFFKKVSQNREYFKITLYGRTKELTSELKENFIRFSKSLGLPENHIVFPVPIDQCIDG
modifications: C-terminal double HA tag
notes: Secreted human protein; expressed from pCEP4-lipocalin-HA with C-terminal double hemagglutinin tag, or supplied in conditioned medium
How did the “growth (colonies) with exogenous lipocalin 2” value (T47D cells) turn out when B1 was run?
The value was “inhibited”.

And the “growth (colonies) with exogenous lipocalin 2” value (MCF10A cells)?
The value was “enhanced”.

And the number of colonies [2]?
Its number of colonies is 18 colonies.

What about the colony numbers [3] of the same molecule?
The colony numbers was “small but significant increase in colony numbers”.

What about the colony numbers [4] of the same molecule?
The colony numbers was “dramatically suppressed colony numbers”.
